Results published in patent publication US20070298997A1, “Compounds useful in treating diabetic microvascular complications and age-related macular degeneration” (priority 2003, published 2007).
“Also recorded” adds a separate entry of the source.

Legend:
retina = assay: Retinal toxicity after intravitreal injection (histology of retinal sections); assay type: in vivo, Brown Norway rats
Experimental: (§1) Induction of retinal neovascularization and intravitreal injection of kallistatin: Retinal neovascularization was induced as described by Smith et al. (Smith et al., 1994) with some modifications. Briefly, newborn pigmented Brown Norway rats at postnatal day 7 (P7) were exposed to hyperoxia (75% O2) for 5 days and then normoxia. Animals were anesthetized, and kallistatin was injected into the vitreous of the right eye through the pars plana using a glass capillary. The left eye received the same volume of PBS as the control. After injection, the animals were kept in normoxia for another 5 days for further analyses.

VEGF [1] = assay: Retinal VEGF levels in OIR rats by Western blot; assay type: in vivo, Brown Norway rats; details: intravitreal injection of 25 μg, P<0.01
Experimental: The effect of kallistatin on VEGF expression was also examined in vivo. After intravitreal injection of 25 μg kallistatin, VEGF levels were determined in the retina with OIR.
as §1
Western blot analysis: One hundred micrograms of total protein were used for Western blot analysis of VEGF using an ECL detection kit (Amersham International plc, Piscataway, N.J.) (Gao et al., 2001). The same membrane was stripped and re-blotted with an antibody specific to β-actin. VEGF levels were normalized by β-actin.

VEGF [2] = assay: VEGF in RCEC cell lysate by Western blot; assay type: cell-based, bovine; details: RCEC under hypoxia, 24 h, 40-640 nM
Experimental: FIG. 9 illustrates down-regulation of VEGF expression by kallistatin. As increased VEGF levels in the retina and vitreous play a key role in the development of retinal neovascularization, the effect of kallistatin on the expression of VEGF in cultured RCEC was determined. VEGF secreted into the conditioned medium was measured by VEGF ELISA and normalized by total protein concentration in the medium.
Measurement of VEGF in the conditioned medium of RCEC by ELISA: RCEC were seeded in T75 flasks in endothelial cell growth medium and cultured in a CO2 incubator to reach 60-70% confluency. The cells were washed 3 times with PBS and the growth medium replaced by a serum-free medium containing bFGF (GIBCO-BRL, Gaithersburg, Md.). Kallistatin was added to the medium to various concentrations and incubated with the cells for 24 h under normoxia or hypoxia (in a chamber that was perfused with a mixture of 95% N2+5% CO2). The conditioned medium was harvested for VEGF ELISA and the cells were used for Western blot analysis. The conditioned medium was centrifuged and the protein concentration in the supernatant was measured with BioRad protein assay. VEGF concentration was measured using a VEGF ELISA kit (R& D systems, Minneapolis, Minn.) and normalized by total protein concentration in the medium. […]

pericytes = assay: Quantification of viable cells by MTT assay, pericytes; assay type: cell-based, bovine; details: 5-160 nM, 72 h, P>0.05
Experimental: FIG. 2 illustrates the specific inhibition of endothelial cell proliferation by recombinant kallistatin. RCEC were treated with recombinant kallistatin at concentrations of 5,10, 20, 40, 80 and 160 nM for 72 h. Viable cells were quantified by MTT assay. […] This effect appeared to be kallistatin concentration-dependent, with an apparent IC50 of 50 nM (FIG. 2) which is similar to that of K5, a known angiogenic inhibitor (Zhang et al., 2001).
Quantification of viable cells: Cells were plated in 12-well plates in triplicate and cultured in the growth medium until they reached 60-70% of confluency. The culture medium was replaced with a medium containing 1% fetal bovine serum (FBS). Recombinant kallistatin was added to the cover medium to various concentrations and incubated with the cells for 72 h. The viable cells were quantified by the MTT (3-[4,5-dimethylthiazol-2-yl]-2,5-dephenyl tetrazolium bromid, Roche, Mannheim, Germany) assay following a protocol recommended by the manufacturer. The effect of kallistatin on viable cell number was analyzed using Student's t test.

[3] = tested on: primary human mesangial cells (HMC); assay: High glucose-induced fibronectin secretion in HMC (ELISA); assay type: cell-based; details: 30 mM glucose, 25 to 1600 nM, 3 days
Experimental: FIG. 11 illustrates blockage of high glucose-induced fibronectin secretion by kallistatin in human mesangial cells (HMC). Primary HMC was treated with high glucose (30 mM) in the presence of different concentrations of kallistatin as indicated for 3 days. Control cells were cultured in 5 mM glucose. To overcome the osmolarity difference, mannitol control cells were treated with 25 mM mannitol+5 mM glucose under the same conditions. Fibronectin secreted into the culture medium was measured by ELISA (mean±SD, n=3).
Cultured primary human mesangial cells (HMC) were treated with 30 mM glucose in the absence or presence of different concentrations of kallistatin (25-1600 nM) for 3 days. Cells cultured in 5 mM glucose were used as a control. To exclude the possible effect of osmolarity from high glucose, an osmolarity control was also included which was treated with 5 mM glucose and 25 mM mannitol. After the treatments for 3 days, secretion of fibronectin into the culture medium was measured.

RCEC = assay: [3H] thymidine incorporation assay; assay type: cell-based, bovine; details: 5 to 160 nM
Experimental: [^3H] thymidine incorporation assay: RCEC were seeded in 24-well plates in 1:1 DMEM +F-12 nutrient mixture plus 10% FBS and cultured in a CO2 incubator to reach 60-70% confluency. The cells were washed 3 times with PBS and the growth medium replaced by a medium containing 1% FBS and different concentrations of kallistatin. After 24 h culture, [^3H] thymidine was added to the medium (2 μCi/well) and incubated with the cells at 37° C. for 12 h. Free [^3H] thymidine was removed by 3 washes with PBS, and a solution of 6% TCA was added to the wells. The TCA solution was removed, and the wells were washed once with PBS. The remaining material was solubilized with 200 μl of 1 M NaOH (Smith et al., 1999). Incorporated [^3H] thymidine was measured with a microplate scintillation counter (Packard Instrument Company, Meriden, Conn.).

B1: kallistatin: Recombinant His-tagged rat kallistatin (serpin, SEQ ID NO:1) expressed in E. coli and affinity-purified (protein, listed as Homo sapiens)
chain: DGILGRDTLPHEDQGKGRQLHSLTLASINTDFTLSLYKKLALRNPDKNVVFSPLSISAALAILSLGAKDSTMEEILEVLKFNLTEITEEEIHHQGFGHLLQRLSQPEDQAEINTGSALFIDKEQPILSEFQEKTRALYQAEAFVADFKQCNEAKKFINDYVSNQTQGKIAELFSELDERTSMVLVNYLLFKGKWKVPFNPNDTFESEFYLDEKRSVKVPMMKIKDLTTPYIRDEELSCSVLELKYTGNASALFILPDQGKMQQVESSLQPETLKKWKDSLRPRIISELRMPKFSISTDYNLEEVLPELGIRKIFSQQADLSRITGTKNLHVSQVVHKAVLDVDETGTEGAAATAVTAALKSLPQTIPPLNFNRPFMLVITDNNGQSVFFMGKVTNPM
modifications: His tag
- inflammatory response or toxicity to retinal tissues and normal vasculature (retina; intravitreal injection): does not cause any detectable inflammatory response or toxicity
- histological evidence of retinal toxicity (retina; retinal sections after intravitreal injection): No apparent histological evidence of retinal toxicity
- retinal VEGF levels, % of the control (VEGF [1]): ~35 % of the control
- VEGF levels in the cell lysate (VEGF [2]): reduced VEGF levels in the cell lysate of RCEC in a concentration-dependent manner
- inhibition of pericytes (viable cells) (pericytes): did not result in any significant inhibition
- fibronectin production (secretion into medium) [3]: concentration-dependent decrease of fibronectin production; also recorded: fibronectin was significantly lower than the high glucose alone
- thymidine incorporation (cell proliferation rate) (RCEC): inhibited thymidine incorporation in RCEC in a concentration-dependent manner
